Test results reported in IntAct's records for PubMed 11359767.

B1: E3 ubiquitin-protein ligase NEDD4 (Homo sapiens), P46934 (parent)
chain: MAQSLRLHFAARRSNTYPLSETSGDDLDSHVHMCFKRPTRISTSNVVQMKLTPRQTALAPLIKENVQSQERSSVPSSENVNKKSSCLQISLQPTRYSGYLQSSNVLADSDDASFTCILKDGIYSSAVVDNELNAVNDGHLVSSPAICSGSLSNFSTSDNGSYSSNGSDFGSCASITSGGSYTNSVISDSSSYTFPPSDDTFLGGNLPSDSTSNRSVPNRNTTPCEIFSRSTSTDPFVQDDLEHGLEIMKLPVSRNTKIPLKRYSSLVIFPRSPSTTRPTSPTSLCTLLSKGSYQTSHQFIISPSEIAHNEDGTSAKGFLSTAVNGLRLSKTICTPGEVRDIRPLHRKGSLQKKIVLSNNTPRQTVCEKSSEGYSCVSVHFTQRKAATLDCETTNGDCKPEMSEIKLNSDSEYIKLMHRTSACLPSSQNVDCQININGELERPHSQMNKNHGILRRSISLGGAYPNISCLSSLKHNCSKGGPSQLLIKFASGNEGKVDNLSRDSNRDCTNELSNSCKTRDDFLGQVDVPLYPLPTENPRLERPYTFKDFVLHPRSHKSRVKGYLRLKMTYLPKTSGSEDDNAEQAEELEPGWVVLDQPDAACHLQQQQEPSPLPPGWEERQDILGRTYYVNHESRRTQWKRPTPQDNLTDAENGNIQLQAQRAFTTRRQISEETESVDNRESSENWEIIREDEATMYSNQAFPSPPPSSNLDVPTHLAEELNARLTIFGNSAVSQPASSSNHSSRRGSLQAYTFEEQPTLPVLLPTSSGLPPGWEEKQDERGRSYYVDHNSRTTTWTKPTVQATVETSQLTSSQSSAGPQSQASTSDSGQQVTQPSEIEQGFLPKGWEVRHAPNGRPFFIDHNTKTTTWEDPRLKIPAHLRGKTSLDTSNDLGPLPPGWEERTHTDGRIFYINHNIKRTQWEDPRLENVAITGPAVPYSRDYKRKYEFFRRKLKKQNDIPNKFEMKLRRATVLEDSYRRIMGVKRADFLKARLWIEFDGEKGLDYGGVAREWFFLISKEMFNPYYGLFEYSATDNYTLQINPNSGLCNEDHLSYFKFIGRVAGMAVYHGKLLDGFFIRPFYKMMLHKPITLHDMESVDSEYYNSLRWILENDPTELDLRFIIDEELFGQTHQHELKNGGSEIVVTNKNKKEYIYLVIQWRFVNRIQKQMAAFKEGFFELIPQDLIKIFDENELELLMCGLGDVDVNDWREHTKYKNGYSANHQVIQWFWKAVLMMDSEKRIRLLQFVTGTSRVPMNGFAELYGSNGPQSFTVEQWGTPEKLPRAHTCFNRLDLPPYESFEELWDKLQMAIENTQGFDGVD
partner: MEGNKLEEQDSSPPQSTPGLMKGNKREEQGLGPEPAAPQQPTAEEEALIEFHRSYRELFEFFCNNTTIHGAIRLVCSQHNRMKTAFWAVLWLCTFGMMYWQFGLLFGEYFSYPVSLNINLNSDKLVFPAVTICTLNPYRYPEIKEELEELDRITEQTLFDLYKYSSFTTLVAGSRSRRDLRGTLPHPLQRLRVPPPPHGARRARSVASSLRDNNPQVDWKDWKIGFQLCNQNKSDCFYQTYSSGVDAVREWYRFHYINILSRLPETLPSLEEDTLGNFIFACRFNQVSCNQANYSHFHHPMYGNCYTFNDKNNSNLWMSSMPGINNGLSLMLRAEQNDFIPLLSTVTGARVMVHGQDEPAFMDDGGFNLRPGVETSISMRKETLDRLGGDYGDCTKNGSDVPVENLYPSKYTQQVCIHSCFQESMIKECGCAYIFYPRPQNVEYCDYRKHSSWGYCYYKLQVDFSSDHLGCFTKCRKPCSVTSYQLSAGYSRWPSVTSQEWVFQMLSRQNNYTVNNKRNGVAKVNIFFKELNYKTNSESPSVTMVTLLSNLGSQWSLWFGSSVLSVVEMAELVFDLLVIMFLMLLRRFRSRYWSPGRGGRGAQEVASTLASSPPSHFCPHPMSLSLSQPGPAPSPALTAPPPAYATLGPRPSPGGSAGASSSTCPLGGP

Variants of: B1
Conditions: with scnna_human SCNN1A
With V629W;H631G the “effect of a mutation on the interaction” value was “with no effect”. With V629W;H631G;V786W;H788G;I859W;H861G;I911W;H913G the “effect of a mutation on the interaction” value was “disrupting interaction strength”. I911W;H913G was tested, and the “effect of a mutation on the interaction” value was “with no effect”. For I859W;H861G, the “effect of a mutation on the interaction” value was “disrupting interaction strength”. In the case of V786W;H788G, the “effect of a mutation on the interaction” value is reported as “with no effect”. In the case of V629W;H631G;V786W;H788G;I859W;H861G, the “effect of a mutation on the interaction” value is reported as “disrupting interaction strength”. V629W;H631G;V786W;H788G;I911W;H913G was tested, and the “effect of a mutation on the interaction” value was “with no effect”. V629W;H631G;I859W;H861G;I911W;H913G was tested, and the “effect of a mutation on the interaction” value was “disrupting interaction strength”. For V786W;H788G;I859W;H861G;I911W;H913G, the “effect of a mutation on the interaction” value was “disrupting interaction strength”.
